Consider six molecules from publication PMC9530649 (Cancer Immunology Research, 2022).

B1: recombinant human fibrinogen-like protein-1 (FGL1)–mFc fusion protein (Fc fusion)
chain: LEDCAQEQMRLRAQVRLLETRVKQQQVKIKQLLQENEVQFLDKGDENTVIDLGSKRQYADCSEIFNDGYKLSGFYKIKPLQSPAEFSVYCDMSDGGGWTVIQRRSDGSENFNRGWKDYENGFGNFVQKHGEYWLGNKNLHFLTTQEDYTLKIDLADFEKNSRYAQYKNFKVGDEKNFYELNIGEYSGTAGDSLAGNFHPEVQWWASHQRMKFSTWDRDHDNYEGNCAEEDQSGWWFNRCHSANLNGVYYSGPYTAKTDNGIVWYTWHGWWYSLKSVVMKIRPNDFIPNVI
B4: recombinant human LAG-3–Fc protein (hLAG-3–hFc) (Fc fusion)
chain: LQPGAEVPVVWAQEGAPAQLPCSPTIPLQDLSLLRRAGVTWQHQPDSGPPAAAPGHPLAPGPHPAAPSSWGPRPRRYTVLSVGPGGLRSGRLPLQPRVQLDERGRQRGDFSLWLRPARRADAGEYRAAVHLRDRALSCRLRLRLGQASMTASPPGSLRASDWVILNCSFSRPDRPASVHWFRNRGQGRVPVRESPHHHLAESFLFLPQVSPMDSGPWGCILTYRDGFNVSIMYNLTVLGLEPPTPLTVYAGAGSRVGLPCRLPAGVGTRSFLTAKWTPPGGGPDLLVTGDNGDFTLRLEDVSQAQAGTYTCHIHLQEQQLNATVTLAIITVTPKSFGSPGSLGKLLCEVTPVSGQERFVWSSLDTPSQRSFSGPWLEAQEAQLLSQPWQCQLYQGERLLGAAVYFTELSSPGAQRSGRAPGALPAGHL

The target in assay [1] is hLAG-3–mFc (Homo sapiens) (UniProt P18627). The experiment in a line: flow cytometry on cells. In general terms: A flow cytometer gives signals particle by particle.
For assay [2], the target named is full-length human LAG-3 on CHO-S cells (CHO-huLAG-3) (Homo sapiens) (UniProt P18627). The experiment in a line: flow cytometry on cells.
Assay [3] concerns the target cynomolgus monkey LAG-3 (cynomolgus monkey (endogenous in primary CD4+ T cells)). The experiment in a line: flow cytometry on cells.
Assay [4] concerns the target recombinant human LAG-3–Fc protein (hLAG-3–hFc) (human) (UniProt P18627). The assay can be described thus: ELISA. A general note: ELISA stands for enzyme-linked immunosorbent assay.
The target is the same in assay [5]. The experiment in a line: SPR. In general terms: In SPR one partner is held on a chip, and binding of the other changes the refractive index at the surface.
Assay [6] deals with B4. The experiment in a line: BLI.
Assay [7] concerns the target T1, LAG-3 D1 insertion-loop peptide P60[…]75 (Homo sapiens).
T1 chain: PGPHPAAPSSWGPRPR
The assay can be described thus: ELISA.

Assay [8] concerns the target native human LAG-3 (Homo sapiens, endogenous, UniProt P18627). The assay can be described thus: immunostaining of cells or tissue.
Assay [9] addresses LAG-3 endogenous in normal human pituitary (adenohypophysis) (Homo sapiens, endogenous, UniProt P18627). The experiment in a line: immunostaining of cells or tissue.
Assay [10] has as its target human LAG-3 fusion protein (used for pre-absorption of LAG-3.1-G4P-FITC) (Homo sapiens, UniProt P18627). The assay can be described thus: immunostaining of cells or tissue.
The target in assay [11] is B1. The assay can be described thus: ELISA.

By IC50 is commonly meant the concentration at which inhibition is half-maximal. As a reminder, the EC50 is the concentration that produces a half-maximal response. The Kd is a measure of binding affinity in units of concentration. For relatlimab (antibody), the results for the IC50 in [1] and in assay [4] were 0.67 nM and 0.019 nM, respectively. Moreover, the EC50 is 1.46 nM in assay [2], 29.1 nM in assay [3] and 0.49 nM in [4]. In addition, in assay [5], the Kd came to 0.12 nM.

As to relatlimab Fab fragment (Fab 3.5), the Kd in [5] was 10 nM.

With B1, the Kd in [6] was above 1000 nM.

B2: LAG3.1-G4P (antibody, V domains shown)
VH: QVQLQQWGAGLLKPSETLSLTCAVYGGSFSDYYWNWIRQPPGKGLEWIGEINHNGNTNSNPSLKSRVTLSLDTSKNQFSLKLRSVTAADTAVYYCAFGYSDYEYNWFDPWGQGTLVTVSS
VL: EIVLTQSPATLSLSPGERATLSCRASQSISSYLAWYQQKPGQAPRLLIYDASNRATGIPARFSGSGSGTDFTLTISSLEPEDFAVYYCQQRSNWPLTFGQGTNLEIK
In turn, B2 came in with a concentration for a half-maximal effect (EC50) in assay [7] of 0.44 nM. In addition, the binding result in assay [8] is given as “binds”.

B3: LAG-3.1-G4P-FITC (fluoresceinated LAG3.1-G4P, parent antibody of relatlimab) (antibody, V domains shown)
VH: QVQLQQWGAGLLKPSETLSLTCAVYGGSFSDYYWNWIRQPPGKGLEWIGEINHNGNTNSNPSLKSRVTLSLDTSKNQFSLKLRSVTAADTAVYYCAFGYSDYEYNWFDPWGQGTLVTVSS
VL: EIVLTQSPATLSLSPGERATLSCRASQSISSYLAWYQQKPGQAPRLLIYDASNRATGIPARFSGSGSGTDFTLTISSLEPEDFAVYYCQQRSNWPLTFGQGTNLEIK
Take B3: the binding result in assay [9] and in assay [10] was “binds” each time.

B4: the EC50 in assay [11] was determined as 0.085 nM.
